# Results: the domain aggregation screens of Martell et al. (2025)
# Experiment: soluble fraction after stress (log2 fold change); higher = more stays soluble; pooled small domains, quantitative proteomics
# Settings: stress: 50 degC
# Outline: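 Pooled custom libraries of small protein domains were measured in a high-throughput format, with quantitative proteomics as the read-out. Each library was stressed at 50°C. Aggregation propensity is given as the base-two logarithm of the fold change in how much of each protein stays soluble after the stress. Higher values mean a larger share of the protein remains in solution.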
row,Sequence,soluble fraction (log2)
1,HMSFSTHHEYYIYNLAVDMRKGYDGLSGLVVNELGRQPWDGSVYVFFNTMRDKVKLLVWDTDGYVIYSKR,0.279
2,HMQKYEDIINVTRERLQNKFYSQTVIPTDDDIYIWLDKVAILEEIKLSKEDRQMLFNLLKKEAT,-0.451
3,HMPSREDFAYDSIKEAILSGELLPNQKISLSDLANKLGISIIPVNSAVGRLVAEGLVRQDPHHSPYVV,0.345
4,HMRRIADVVPEQLTREEAEELLETLAEQGEIHEEQALLARYILEQSLQGVAPEVEPLIRAKLLAGILMVY,-1.69
5,HMGVEALTPRQREVLALMAQGRSNGWIAAELGLSEKAIVQHTSNIYDMLGLAVDADDHRRVLAVIHYLT,-1.25
6,HMSSDLVDYLVKYVAIVDNQEIEIADSKIGTAELGTTVSEVAKTVGNYYPKATVLSVKITGRNQEIVFEY,-2.83
7,HMDIVQLSEKINVMKMEIPAQAIGKTVLEVNFRARFDLNIIAIENGGKLVEVIKPDYVFREGDILFLSGS,-1.16
8,HMALSLPDDMTIVRKDGSSLEVRLKSRTVTEIHFERISDSETFQFSIDQLDETTRELVEQYPVM,-0.0919
9,HMWSQEPEYRPLYNSMDGFDAGQVVEMLQQSRIDYKVEPNSGALLVRSEDLADARLRLASAGISP,-0.0156
10,HMLLRSEDAIELGKSQLEDALAPYKIETLDTGTVQQLLDSLKLNSLESLYQEIGLGNRMSTIIAHRLLGE,-0.156
11,HMQDVKRYLVNSNQLNVRTGPGKEFEISESLNKGDAVTLLHKESNGWWEVITSTGQGYVYSSMLTKDPW,-0.525
12,HMNVEALIGREGRVTDKIEANGYGRVKVDGDSWKAKSANGAEIRQNTDVRILSIDSVIITVEP,-0.379
13,HMQITDSGAIETIIDKIIADNPGQVTQYLSGKDKVFGFFVGQTMKASQGKANPAEVNKILQEKLK,0.00553
14,HMSFVEVTVSELKNYVNSHARIKLKSGKEFKGFILDANEEGVIIKVQLRGGTAESTISYNRIDRAAVF,-1.69
15,HMQSYSTIIGVIELRLSGIGYRTTKARYGIGNSTVTLIMNRFKETGFTLDDLKTMEPTKVEALFYPP,-0.873
16,HMKMAKTIKEIAEEIGVSKQAVFKKIKQVPLSTEIEKFISTVDGKKLVSVDGENLIKQAFQR,0.325
17,HMGVIDTLSGPQKAAAILVAIGRPSASRLLKHFNAEDLRKLAGHARTLEPISPLDFEHLVKQFEDSFAEG,-0.798
18,HMNVDSLPGEKAVVIKTIDNLRGTGQAVVNGLEWSAKSKDETIIDEGKVVRIVAVEGVKLVVEEE,0.0762
19,HMLFQQPATMIGKIGVAMSDLRPSGKIKIDDEWYDGQSEGDYILKGQEIIVVQVMNAYLIVRL,0.126
20,HMATVGENIRRYRKAQNLSAAKLAEKVGLTQGAILHYERGIRTPGISQLEKIAHALNVSPRM,-0.0581
21,HMIIIMKMGADESQVQETIKRIKDLGFNTHLSKGENRTIIGVIGDVSSIDESDVERLRATPYIAEVVRVS,0.0267
22,HMNTLPTDELMKYGIINEDLSFSKKLNADDIQKFLQGYTIVADNDKNRATFQLTENNTKLKVIFLER,-0.438
23,HMAKRKTEKTSVLEEIDGVGKARARALLARFGGLSGVKAASPEELRTVRGITPEIAENIRRYFQ,0.121
24,HMPNQIKQIAVNTASVSDIATIPGISFDFAKEIWEFRILRQKIGSLSELQKIEGMTASKYALIELYLHI,-3.37
25,HMSRVKQERLNRFVEAFEAYFRSVHPGEIDVEYLKSDEFGDIFESILHRVMHTASEEKMHRFKKILLNEM,-2.13

row,Sequence,soluble fraction (log2)
1,HMLAERKERDKAELKELILDAAKKILLKNGQEGLSIRKIATTVEYSPATIYLYFKDKDEILHELMEMG,0.317
2,HMSKRIFPNEFQRNSPDAMVMLDKMNLSRINVDPLTKSLTLNGGGSVKTLLNGREVSAVEIAALSP,0.0444
3,HMNTISEADAKRIALERAGLTAADYVKVDYDQDDNEYEVEMRSGNTEYEVKISGSTGAVLEYDSETD,0.149
4,HMDSVAKSFLAEIERFLETAGLEPTTLGKQALGDPSFVFDLRKGRSPSTRTIGKLRVWMQQQNALS,-1.2
5,HMSAEKPVKSELFYKSMLNSFEQAVRFMIANGILEDFKSRIVAINNETNHQNWFNKQEFNAIIERF,-0.449
6,HMTSRLLTPRQRYVFDTAMKEGFYDVPRRITLTELASVLDVAKSTLSAQLHRIESTVHHAYADDIRRRS,-2.35
7,HMLGARIAALRRQAGMNQGELAKKLGISPSTVGMYEQGRREPSAEMLVRLAEAFSVSTDFLLT,-4.95e-05
8,HMQVTIGADLAEHAARLDVQISDVVKLIKSGVSEGEIKVGLTKLETRLAHPELALVENKLAYLKALIAES,-0.243
9,HMTSGTLTLTQDTPVYTEPNKDGGVAYVQPQGDIQWDKYIFANGDNWYSFVQKNRDQEVRFYIAYSDVG,-0.0923
10,HMSYQSYDKVVGDTFFEANLKAESKFGKGNFEIISTRRVKHPIYLGFGHKELVELTIGIHDP,-0.308
11,HMPPSQRVNRILSLAGITSRRKADEYILEGRVTVNGEVLKEPGAKAVWGTDDIRVDGKPIPALS,0.1
12,HMQQLTQRELTLLRLLANGYNNRQIAEQLQLAESTVKNNLSALFQKIGVRDRTQAVLFAISQGLVP,-0.656
13,HMGEVPVETKDGIKVHVHTVDKSQTAYGISRLYNITLNELYESNPEAKLELSIGQKLYFPVK,-0.154
14,HMLLTHPKRVFTYELIMELVWNEDYTFYSKKAVSNHMSNLRKKLKVTPDALDYIKNIVGVGYKFEA,-0.759
15,HMTREAILDTAEELLQRRGYNAFSYHHIAVQLGIRNAAIHYHFPAKEDLGIELVSRFRIRLAE,-0.146
16,HMDYKLDVNFPEMYLEQIPAEKRAALIQILEQDPRPSYQKDPVRIYGMSYAGMEIHFRVDKETLYVTEVER,-0.996
17,HMSEATTVNYKYAVTISDLRIRKGPGTNYGSVGYTGKGVFTIVAEKGGWGKLKSGAGWISLNSKYGHKVS,-1.45
18,HMDIEELLSRSTDRLSRQTEIRRLLADAQGRPNISSLARRFKVARRTVIRDLQELIRRGEVPPEIYPK,-0.744
19,HMLSVNREQVEQSLKQEWGFDYDKNLRAAQRAIDVYGDDDLKLLLNGPTGNDPAIVKLFARLGGEVTEE,-0.00909
20,HMAEAETVKFVGNSLLLVSGAAKGERLSVYTVGGQHVLSADATKPVDVAALHSGVYVVRTTNGVITKIVK,-0.749
21,HMSLGSQEYSIGFRNGDSTYHYIDKALKELAYEGVIDELSTQWFGSSRAVDFPSQKDALSELGYIA,-0.0308
22,HMAPQSAAAILRYLSSGAIRGVGPATAQRIVERFGTDSLEIIQNRPKELAAINGISINKALSISEEYAKQY,-0.831
23,HMQDTIDLVIQVNGKLRGQMNVPKDTDRATIEQLAINLENVQKIVAGNAIKKIIIVPGRLINIVVSKNL,-0.925
24,HMNTLGTNIAKLRESQKLTQEELGKLSGVSRVSIYKIETGQSTPRDTTLQNIAEALHTTPSALRS,0.142
25,HMSSESIIIKKLIEEFIHNENKYSPLSDEKLSYLLKNKGFSVARRTVAKYRDELGILSTRERKIKI,-0.745

row,Sequence,soluble fraction (log2)
1,HMGTKVGAPLPGTITEVKVKVGDTVKAGDAVIILEAMKMQNNIEAEVSGTVSSVLVKEGDTVMEGDALITI,0.144
2,HMVSKIEAPLPGIILSVDVKEGDTVKAGDKLMVMEAMKMENAILAETNGVVKSIKVKIQDSVLQGDILAEI,-0.171
3,HMREGLRHLRVRMPGGAGETLAMLYREGEVLSQSSDGAFIEVEIRVAQSVAGRLLQMPGVQLTEEVG,-0.21
4,HMDTINEYERNILSLITSKPGISAVQIAADTDKSIITAKRGIKTLVDGKLIEYRGSKKTGGYFLLTQS,-0.371
5,HMTPDDSYIAGYAAGILKHQFLIDAPELIVRNGTITIPADKVSAGDRAKVVQILSGIPGVTRVEVG,-0.0502
6,HMSYANVEWRDFLNSLDEKYRIVVILYYVQGFKTREIAEILQINQSTVRGRLAKAREKLEQQYN,-1.46
7,HMKNHSTFKSVLSNIEFPINERISGHAIQNPILGLIKADHPNFSSDQYIAISELNFYREKYISNYLLTEI,-3.35
8,HMLKVHPRDQEENRLLLLKGERLYEESTGDTRVMIDMWLRKFEEALNSRSRENIEDARRELKEQLAELDN,-0.00144
9,HMIRTGEVVTGKVINVKEDQIILNIGFKSDGIITRNEYTNDNSLDLRTVVHEGDEIEAKVLKVNDGEGQVV,≥ 0.62
10,HMIYGNGVTDLKDLANGATIIIPADDSNETRALFLLQQEGLIKLPDDADAAKGVSTLDIVDGGGWVTSM,0.0431
11,HMLFKNASGTVVSRIQSQVDGQINIRTGSGNAPDYAFVAKPDGAVELYHNGTKQFETGSSGVLLP,-0.274
12,HMDAIDPKTVTSWADLWKPEYKSSLLLTDDAREVFQMALRKLGYSGNTTDPKEIEAAYNELKKLMPNVAAF,-0.0387
13,HMTGSLLVEVQGRPDADRLLGQALVDAGLTARPAGGALIEVEVRDETTPDVVRDLTVDLGLGLVRMQERH,-0.702
14,HMNSVYTPDPKELAKAIKIVTAAREAEQKGQGVIAVDGRMVDAPVVSQALRILELARLAGMEVSE,0.0244
15,HMNERIKSLRKALGLTQQEFADKLGISRGNIGAYEVGKNAPSDAVISLIVRIFNTNENWLRTGEGEM,-0.145
16,HMRFANGHLIWDTIIELRNAERRINRRALADLTGLKPGVVDDHVERWIEKDQLRRAGNGELEVV,-0.943
17,HMDDSVVFSLNAKGIRLTGAGKYGEAIALFDKAIAAKPGLSGLYFNRAEARRLSGDLPGARSDLEQALAI,-0.453
18,HMDNFQFIGYSQQQGQIAVAWIKSLDNGRLVRVEVSDSLEGWRVSDISAQGVNLTKGQQWLMLKRL,-1.73
19,HMRPADTAAMLKYLSSGAVKGIGGALAGRIIEAFGDESIKVIEEDPARLATVKGITLKKAKEISEEMQRVN,0.0712
20,HMSAIKSVTTQLDNTKLRTGPDVSYQYTQSYPANTKLTYINKSGTWYQVKDADGNTGYVASWVVTPSE,0.236
21,HMKMVSTPTGTRISLTQVKEFISNASFDDMKEILLEVLAWFKAHNLGNPFNYNRAFEFIVAH,0.102
22,HMSKNTFIGNIDDKELYVGSGRYGPFMLYDGKFTNITRYLSDESKELTDITIDDYSKIVNNARPK,-0.101
23,HMFRPDYYEILQVDRHASPEVITAAYRQLLSIYNSEQDGNKQMIKLIQEAYGVLGDSQDRWLYDSWLDNN,-0.746
24,HMEIGLIRVDSRLIHGQVITKWLNYSKANVIVVVDDELSKDSFMSEIYKASAPNGIIVEILSIDDFMKNT,0.00544
25,HMLNEWIDYIDEHIKEELTAKNLATVFGYSERHFRNVFQIYYDIKLNDYIRRRKLYFAAQELKKG,-1.17
